Experimental data reported in publication PMC2119678 (The Journal of Cell Biology, 1993).

Molecular target: actin from rabbit skeletal muscle (F actin) (rabbit, UniProt P68135 1-377)
Experiment: co-sedimentation

stoichiometry N: 6 actin monomers per transgelin
B1: transgelin (natural protein)
chain: MANKGPSYGMSREVQSKIEKKYDEELEERLVEWIVVQCGPDVGRPDRGRLGFQVWLKNGVILSKLVNSLYPDGSKPVKVPENPPSMVFKQMEQVAQFLKAAEDYGVTKTDMFQTVDLFEGKDLAAVQRTLMALGSLAVTKNDGHYRGDPNWFMKKAQEHKREFTESQLQEGKHVIGLQMGSNRGASQLAGHSILPRLPHTQPCSSFSPGQASRLRH
